Measured values reported in patent US20160108091A1 (Novartis, published 2016).
Bridges are numbered along the chain shown (N, C = ends). [ ]: non-standard residue; d: D form. The star is where a group is joined. NHPhenethyl = c1ccc(CCN*)cc1; hCys = N[C@@H](CCS)C(=O)O; Nle = CCCC[C@H](N)C(=O)O

B1: Ac-C*-R-P-R-L-S-C*-K-G-P-Nle-P-f-OH (peptide)
peptide: Ac-CRPRLSCKGP[Nle]P[dF]-OH
modifications: disulfide 1-7
SMILES: CCCC[C@H](NC(=O)[C@@H]1CCCN1C(=O)CNC(=O)[C@H](CCCCN)NC(=O)[C@@H]1CSSC[C@H](NC(C)=O)C(=O)N[C@@H](CCCNC(=N)N)C(=O)N2CCC[C@H]2C(=O)N[C@@H](CCCNC(=N)N)C(=O)N[C@@H](CC(C)C)C(=O)N[C@@H](CO)C(=O)N1)C(=O)N1CCC[C@H]1C(=O)N[C@H](Cc1ccccc1)C(=O)O
B2: Ac-C*-R-P-R-L-S-C*-K-G-P-Nle-P-F-OH (peptide)
peptide: Ac-CRPRLSCKGP[Nle]PF-OH
modifications: disulfide 1-7
SMILES: CCCC[C@H](NC(=O)[C@@H]1CCCN1C(=O)CNC(=O)[C@H](CCCCN)NC(=O)[C@@H]1CSSC[C@H](NC(C)=O)C(=O)N[C@@H](CCCNC(=N)N)C(=O)N2CCC[C@H]2C(=O)N[C@@H](CCCNC(=N)N)C(=O)N[C@@H](CC(C)C)C(=O)N[C@@H](CO)C(=O)N1)C(=O)N1CCC[C@H]1C(=O)N[C@@H](Cc1ccccc1)C(=O)O
B3: Ac-C*-R-P-R-L-S-C*-K-G-P-Nle-NH(Phenethyl) (peptide)
peptide: Ac-CRPRLSCKGP[Nle]-NHPhenethyl
modifications: disulfide 1-7
SMILES: CCCC[C@H](NC(=O)[C@@H]1CCCN1C(=O)CNC(=O)[C@H](CCCCN)NC(=O)[C@@H]1CSSC[C@H](NC(C)=O)C(=O)N[C@@H](CCCNC(=N)N)C(=O)N2CCC[C@H]2C(=O)N[C@@H](CCCNC(=N)N)C(=O)N[C@@H](CC(C)C)C(=O)N[C@@H](CO)C(=O)N1)C(=O)NCCc1ccccc1
B4: Ac-c*-R-P-R-L-S-C*-K-G-P-Nle-P-F-OH (peptide)
peptide: Ac-[dC]RPRLSCKGP[Nle]PF-OH
modifications: disulfide 1-7
SMILES: CCCC[C@H](NC(=O)[C@@H]1CCCN1C(=O)CNC(=O)[C@H](CCCCN)NC(=O)[C@@H]1CSSC[C@@H](NC(C)=O)C(=O)N[C@@H](CCCNC(=N)N)C(=O)N2CCC[C@H]2C(=O)N[C@@H](CCCNC(=N)N)C(=O)N[C@@H](CC(C)C)C(=O)N[C@@H](CO)C(=O)N1)C(=O)N1CCC[C@H]1C(=O)N[C@@H](Cc1ccccc1)C(=O)O
B5: Ac-C*-R-P-R-L-S-c*-K-G-P-Nle-P-F-OH (peptide)
peptide: Ac-CRPRLS[dC]KGP[Nle]PF-OH
modifications: disulfide 1-7
SMILES: CCCC[C@H](NC(=O)[C@@H]1CCCN1C(=O)CNC(=O)[C@H](CCCCN)NC(=O)[C@H]1CSSC[C@H](NC(C)=O)C(=O)N[C@@H](CCCNC(=N)N)C(=O)N2CCC[C@H]2C(=O)N[C@@H](CCCNC(=N)N)C(=O)N[C@@H](CC(C)C)C(=O)N[C@@H](CO)C(=O)N1)C(=O)N1CCC[C@H]1C(=O)N[C@@H](Cc1ccccc1)C(=O)O
B6: Ac-c*-R-P-R-L-S-c*-K-G-P-Nle-P-F-OH (peptide)
peptide: Ac-[dC]RPRLS[dC]KGP[Nle]PF-OH
modifications: disulfide 1-7
SMILES: CCCC[C@H](NC(=O)[C@@H]1CCCN1C(=O)CNC(=O)[C@H](CCCCN)NC(=O)[C@H]1CSSC[C@@H](NC(C)=O)C(=O)N[C@@H](CCCNC(=N)N)C(=O)N2CCC[C@H]2C(=O)N[C@@H](CCCNC(=N)N)C(=O)N[C@@H](CC(C)C)C(=O)N[C@@H](CO)C(=O)N1)C(=O)N1CCC[C@H]1C(=O)N[C@@H](Cc1ccccc1)C(=O)O
B7: Ac-c*-R-P-R-L-S-hC*-K-G-P-Nle-P-F-OH (peptide)
peptide: Ac-[dC]RPRLS[hCys]KGP[Nle]PF-OH
modifications: disulfide 1-7
SMILES: CCCC[C@H](NC(=O)[C@@H]1CCCN1C(=O)CNC(=O)[C@H](CCCCN)NC(=O)[C@@H]1CCSSC[C@@H](NC(C)=O)C(=O)N[C@@H](CCCNC(=N)N)C(=O)N2CCC[C@H]2C(=O)N[C@@H](CCCNC(=N)N)C(=O)N[C@@H](CC(C)C)C(=O)N[C@@H](CO)C(=O)N1)C(=O)N1CCC[C@H]1C(=O)N[C@@H](Cc1ccccc1)C(=O)O

These binders were tested against T1, human APJ receptor (hAPJ) (human, UniProt P35414 1-380) (assay: cell-based or functional assay).
T1 sequence (looked up): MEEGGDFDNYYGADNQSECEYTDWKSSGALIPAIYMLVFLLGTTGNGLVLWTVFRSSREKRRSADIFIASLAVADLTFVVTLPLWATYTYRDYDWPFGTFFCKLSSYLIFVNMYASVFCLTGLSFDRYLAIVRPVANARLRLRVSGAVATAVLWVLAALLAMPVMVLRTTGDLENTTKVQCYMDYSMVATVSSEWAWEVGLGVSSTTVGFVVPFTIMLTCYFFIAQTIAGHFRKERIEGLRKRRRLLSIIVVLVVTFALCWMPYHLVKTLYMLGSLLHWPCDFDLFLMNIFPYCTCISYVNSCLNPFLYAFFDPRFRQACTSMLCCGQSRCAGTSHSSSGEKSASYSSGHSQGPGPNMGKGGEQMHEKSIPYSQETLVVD
In the case of B1, the “hAPJ Ca^2+ Flux EC50” value is reported as 46.9 nM. In the case of B2, the “hAPJ Ca^2+ Flux EC50” value is reported as 9.4 nM. With B3 the “hAPJ Ca^2+ Flux EC50” value was 32.2 nM. In the case of B4, the “hAPJ Ca^2+ Flux EC50” value is reported as 21.4 nM. For B5, the “hAPJ Ca^2+ Flux EC50” value was 194 nM. For B6, the “hAPJ Ca^2+ Flux EC50” value was 48.7 nM. For B7, the “hAPJ Ca^2+ Flux EC50” value was 12.2 nM.
